B1: 110 (protein)
chain: STAIAQEGAAPAAILHPEKWPRPATQRLIDPAVEKRVDALLKQLSVEEKVGQVIQGDIGTITPEDLRKYPLGSILAGGNSGPNGDDRAPPKEWLDLADAFYRVSLEKRPGHTPIPVLFGIDAVHGHGNIGSATIFPHNIALGATRDPELLRRIGEVTAVEMAATGIDWTFAPALSVVRDDRWGRTYEGFSEDPEIVAAYSAAIVEGVQGKFGSKDFMAPGRIVASAKHFLADGGTDQGRDQGDARISEDELIRIHNAGYPPAIDAGVLTVMASFSSWQGIKHHGHKQLLTDVLKGQMGFNGFIVGDWNAHDQVPGCTKFNCPTSLIAGLDMYMAADSWKQLYENTLAQVKDGTIPMARLDDAVRRILRVKVLAGLFEKPAPKDRPGLPGLETLGSPEHRAVGREAVRKSLVLLKNDKGTLPLSPKARVLVAGDGADNIGKQSGGWTISWQGTGNRNDEFPGATSILGGIRDAVADAGGSVEFDVAGQYKTKPDVAIVVFGEEPYAEFQGDVETLEYQPDQKQDLALLKKLKDQGIPVVAVFLSGRPMWVNPELNASDAFVAAWLPGTEGGGVADVLFTDKAGKVQHDFAGKLSYSWPRTAAQTTVNRGDADYNPLFAYGYGLTYKDKSKVGTLPEESGVPAE
B2: 108 (protein)
chain: STAIAQEGAAPAAILHPEKWPRPATQRLIDPAVEKRVDALLKQLSVEEKVGQVIQGDIGTITPEDLRKYPLGSILAGGNSGPNGDDRAPPKEWLDLADAFYRVSLEKRPGHTPIPVLFGIDAVHGHGNIGSATIFPHNIALGATRDPELLRRIGEVTAVEMAATGIDWTFAPALSVVRDDRWGRTYEGFSEDPEIVAAYSAAIVEGVQGKFGSKDFMAPGRIVASAKHFLADGGTDQGRDQGDARISEDELIRIHNAGYPPAIDAGVLTVMASFSSWQGIKHHGHKQLLTDVLKGQMGFNGFIVGDWNAHDQVPGCTKFNCPTSLIAGLDMYMAADSWKQLYENTLAQVKDGTIPMARLDDAVRRILRVKVLAGLFEKPAPKDRPGLPGLETLGSPEHRAVGREAVRKSLVLLKNDKGTLPLSPKARVLVAGDGADNIGKQSGGWTISWQGTGNRNDEFPGATSILGGIRDAVADAGGSVEFDVAGQYKTKPDVAIVVFGEEPYAEFQGDVETLEYQPDQKQDLALLKKLKDQGIPVVAVFLSGRPMWVNPELNASDAFVAAWLPGTEGGGVADVLFTDKAGKVQHDFAGKLSYSWPRTAAQTTVNRGDADYNPLFAYGYGLTYKDKSKVGTLPEESGVP
B3: 111 (protein)
chain: STAIAQEGAAPAAILHPEKWPRPATQRLIDPAVEKRVDALLKQLSVEEKVGQVIQGDIGTITPEDLRKYPLGSILAGGNSGPNGDDRAPPKEWLDLADAFYRVSLEKRPGHTPIPVLFGIDAVHGHGNIGSATIFPHNIALGATRDPELLRRIGEVTAVEMAATGIDWTFAPALSVVRDDRWGRTYEGFSEDPEIVAAYSAAIVEGVQGKFGSKDFMAPGRIVASAKHFLADGGTDQGRDQGDARISEDELIRIHNAGYPPAIDAGVLTVMASFSSWQGIKHHGHKQLLTDVLKGQMGFNGFIVGDWNAHDQVPGCTKFNCPTSLIAGLDMYMAADSWKQLYENTLAQVKDGTIPMARLDDAVRRILRVKVLAGLFEKPAPKDRPGLPGLETLGSPEHRAVGREAVRKSLVLLKNDKGTLPLSPKARVLVAGDGADNIGKQSGGWTISWQGTGNRNDEFPGATSILGGIRDAVADAGGSVEFDVAGQYKTKPDVAIVVFGEEPYAEFQGDVETLEYQPDQKQDLALLKKLKDQGIPVVAVFLSGRPMWVNPELNASDAFVAAWLPGTEGGGVADVLFTDKAGKVQHDFAGKLSYSWPRTAAQTTVNRGDADYNPLFAYGYGLTYKDKSKVGTLPEESGVPAEARQNAGIYFR
B4: 104 (protein)
chain: STAIAQEGAAPAAILHPEKWPRPATQRLIDPAVEKRVDALLKQLSVEEKVGQVIQGDIGTITPEDLRKYPLGSILAGGNSGPNGDDRAPPKEWLDLADAFYRVSLEKRPGHTPIPVLFGIDAVHGHGNIGSATIFPHNIALGATRDPELLRRIGEVTAVEMAATGIDWTFAPALSVVRDDRWGRTYEGFSEDPEIVAAYSAAIVEGVQGKFGSKDFMAPGRIVASAKHFLADGGTDQGRDQGDARISEDELIRIHNAGYPPAIDAGVLTVMASFSSWQGIKHHGHKQLLTDVLKGQMGFNGFIVGDWNAHDQVPGCTKFNCPTSLIAGLDMYMAADSWKQLYENTLAQVKDGTIPMARLDDAVRRILRVKVLAGLFEKPAPKDRPGLPGLETLGSPEHRAVGREAVRKSLVLLKNDKGTLPLSPKARVLVAGDGADNIGKQSGGWTISWQGTGNRNDEFPGATSILGGIRDAVADAGGSVEFDVAGQYKTKPDVAIVVFGEEPYAEFQGDVETLEYQPDQKQDLALLKKLKDQGIPVVAVFLSGRPMWVNPELNASDAFVAAWLPGTEGGGVADVLFTDKAGKVQHDFAGKLSYSWPRTAAQTTVNRGDADYNPLFAYGYGLTYKDKSKVGTLPEESGVPAEARQNAGIY
B5: 106 (protein)
chain: STAIAQEGAAPAAILHPEKWPRPATQRLIDPAVEKRVDALLKQLSVEEKVGQVIQGDIGTITPEDLRKYPLGSILAGGNSGPNGDDRAPPKEWLDLADAFYRVSLEKRPGHTPIPVLFGIDAVHGHGNIGSATIFPHNIALGATRDPELLRRIGEVTAVEMAATGIDWTFAPALSVVRDDRWGRTYEGFSEDPEIVAAYSAAIVEGVQGKFGSKDFMAPGRIVASAKHFLADGGTDQGRDQGDARISEDELIRIHNAGYPPAIDAGVLTVMASFSSWQGIKHHGHKQLLTDVLKGQMGFNGFIVGDWNAHDQVPGCTKFNCPTSLIAGLDMYMAADSWKQLYENTLAQVKDGTIPMARLDDAVRRILRVKVLAGLFEKPAPKDRPGLPGLETLGSPEHRAVGREAVRKSLVLLKNDKGTLPLSPKARVLVAGDGADNIGKQSGGWTISWQGTGNRNDEFPGATSILGGIRDAVADAGGSVEFDVAGQYKTKPDVAIVVFGEEPYAEFQGDVETLEYQPDQKQDLALLKKLKDQGIPVVAVFLSGRPMWVNPELNASDAFVAAWLPGTEGGGVADVLFTDKAGKVQHDFAGKLSYSWPRTAAQTTVNRGDADYNPLFAYGYGLTYKDKSKVGTLPEE
B6: 109 (protein)
chain: STAIAQEGAAPAAILHPEKWPRPATQRLIDPAVEKRVDALLKQLSVEEKVGQVIQGDIGTITPEDLRKYPLGSILAGGNSGPNGDDRAPPKEWLDLADAFYRVSLEKRPGHTPIPVLFGIDAVHGHGNIGSATIFPHNIALGATRDPELLRRIGEVTAVEMAATGIDWTFAPALSVVRDDRWGRTYEGFSEDPEIVAAYSAAIVEGVQGKFGSKDFMAPGRIVASAKHFLADGGTDQGRDQGDARISEDELIRIHNAGYPPAIDAGVLTVMASFSSWQGIKHHGHKQLLTDVLKGQMGFNGFIVGDWNAHDQVPGCTKFNCPTSLIAGLDMYMAADSWKQLYENTLAQVKDGTIPMARLDDAVRRILRVKVLAGLFEKPAPKDRPGLPGLETLGSPEHRAVGREAVRKSLVLLKNDKGTLPLSPKARVLVAGDGADNIGKQSGGWTISWQGTGNRNDEFPGATSILGGIRDAVADAGGSVEFDVAGQYKTKPDVAIVVFGEEPYAEFQGDVETLEYQPDQKQDLALLKKLKDQGIPVVAVFLSGRPMWVNPELNASDAFVAAWLPGTEGGGVADVLFTDKAGKVQHDFAGKLSYSWPRTAAQTTVNRGDADYNPLFAYGYGLTYKDKSKVGTLPEESGVPAEARQNAGIYFRAGALRLPGRF
B7: 105 (protein)
chain: STAIAQEGAAPAAILHPEKWPRPATQRLIDPAVEKRVDALLKQLSVEEKVGQVIQGDIGTITPEDLRKYPLGSILAGGNSGPNGDDRAPPKEWLDLADAFYRVSLEKRPGHTPIPVLFGIDAVHGHGNIGSATIFPHNIALGATRDPELLRRIGEVTAVEMAATGIDWTFAPALSVVRDDRWGRTYEGFSEDPEIVAAYSAAIVEGVQGKFGSKDFMAPGRIVASAKHFLADGGTDQGRDQGDARISEDELIRIHNAGYPPAIDAGVLTVMASFSSWQGIKHHGHKQLLTDVLKGQMGFNGFIVGDWNAHDQVPGCTKFNCPTSLIAGLDMYMAADSWKQLYENTLAQVKDGTIPMARLDDAVRRILRVKVLAGLFEKPAPKDRPGLPGLETLGSPEHRAVGREAVRKSLVLLKNDKGTLPLSPKARVLVAGDGADNIGKQSGGWTISWQGTGNRNDEFPGATSILGGIRDAVADAGGSVEFDVAGQYKTKPDVAIVVFGEEPYAEFQGDVETLEYQPDQKQDLALLKKLKDQGIPVVAVFLSGRPMWVNPELNASDAFVAAWLPGTEGGGVADVLFTDKAGKVQHDFAGKLSYSWPRTAAQTTVNRGDADYNPLFAYGYGLTYKDKSKVGTLP
B8: 107 (protein)
chain: STAIAQEGAAPAAILHPEKWPRPATQRLIDPAVEKRVDALLKQLSVEEKVGQVIQGDIGTITPEDLRKYPLGSILAGGNSGPNGDDRAPPKEWLDLADAFYRVSLEKRPGHTPIPVLFGIDAVHGHGNIGSATIFPHNIALGATRDPELLRRIGEVTAVEMAATGIDWTFAPALSVVRDDRWGRTYEGFSEDPEIVAAYSAAIVEGVQGKFGSKDFMAPGRIVASAKHFLADGGTDQGRDQGDARISEDELIRIHNAGYPPAIDAGVLTVMASFSSWQGIKHHGHKQLLTDVLKGQMGFNGFIVGDWNAHDQVPGCTKFNCPTSLIAGLDMYMAADSWKQLYENTLAQVKDGTIPMARLDDAVRRILRVKVLAGLFEKPAPKDRPGLPGLETLGSPEHRAVGREAVRKSLVLLKNDKGTLPLSPKARVLVAGDGADNIGKQSGGWTISWQGTGNRNDEFPGATSILGGIRDAVADAGGSVEFDVAGQYKTKPDVAIVVFGEEPYAEFQGDVETLEYQPDQKQDLALLKKLKDQGIPVVAVFLSGRPMWVNPELNASDAFVAAWLPGTEGGGVADVLFTDKAGKVQHDFAGKLSYSWPRTAAQTTVNRGDADYNPLFAYGYGLTYKDKSKVGTLPEESGVPAEAR

This is an account of results in patent US8357523B2, “Beta-glucosidase variant enzymes and related polynucleotides” (Codexis, Inc., priority 2009, dated 2013).

This series in a line: High throughput cellobiose assay: fold improvement in cellobiase activity of CelA variants over a control enzyme (Tables 2A-2D, 3, 5, 6, 7). The format is biochemical. To be noted: 3.3 g/l cellobiose, 55° C. and pH 6.0.
Turning to B1, the “Fold improvement over Control Variant No. 5 from Table 2A” value is “++ (++ = 1.1 to 6 fold improvement over control Variant No. 2)”.
As to B2, the “Fold improvement over Control Variant No. 5 from Table 2A” value is “++ (++ = 1.1 to 6 fold improvement over control Variant No. 2)”.
To B3 belongs “++ (++ = 1.1 to 6 fold improvement over control Variant No. 2)”; to B4, “++ (++ = 1.1 to 6 fold improvement over control Variant No. 2)”; to B5, “++ (++ = 1.1 to 6 fold improvement over control Variant No. 2)”.
To B6 belongs “++ (++ = 1.1 to 6 fold improvement over control Variant No. 2)”.
To B7 belongs “++ (++ = 1.1 to 6 fold improvement over control Variant No. 2)”.
Turning to B8, the “Fold improvement over Control Variant No. 5 from Table 2A” value is “++ (++ = 1.1 to 6 fold improvement over control Variant No. 2)”.
